Experimental findings from US20230056252A1 (Gilead, published 2023) are described below.

Test [1] addresses T1, CD3 expressed on cell-surface of primary human T cells (human, UniProt P07766 23-207; P04234 22-171).
T1 construct: also called cell-surface CD3; human CD3
Description: flow cytometry on human PBMCs, CD8+ cells, donor 3761.
Description: (§1) Briefly, peripheral blood mononuclear cells (PBMCs) were incubated with different concentrations of HIV×CD3 bispecific molecules for 1 hour at RT. […] Cells were then washed, fixed/permeabilized, and analyzed using BD LSRFortessa according to the manufacturer's protocol. The percentage of α-huIgG-APC-positive CD4+ and CD8+ T cells and the mean fluorescence intensity of the α-huIgG-APC of CD4+ and CD8+ cells were collected, and data analyzed using GraphPad Prism.
(§2) Binding experiments were performed using PBMCs from two healthy human donors.

Test [2] has as its target T1, CD3 expressed on cell-surface of …. The experiment in a line: flow cytometry on human PBMCs, CD8+ cells, donor 4574.
Description: as §1, §2
The target is the same in test [3]. The experiment in a line: flow cytometry on human PBMCs, CD4+ cells, donor 3761.
Description: as §1, §2
Test [4] shares this target. The experiment in a line: flow cytometry on human PBMCs, CD4+ cells, donor 4574.
Description: as §1, §2
The target is the same in test [5]. The experiment in a line: flow cytometry on PBMCs, % anti-huIgG+ CD8+ cells, donor hu 340.
Description: (§3) Briefly, PBMCs from healthy human donors and healthy rhesus or cynomolgus monkey donors were incubated with different concentrations of HIV×CD3 bispecific molecules for 1 hour at RT. […] Cells were then washed, fixed/permeabilized, and analyzed on BD LSRFortessa. The percentage of α-huIgG-APC-positive CD4+ and CD8+ T cells and the mFI of the α-huIgG-APC of CD4+ and CD8+ cells were collected, and data analyzed using GraphPad Prism.
The target in test [6] is CD3 on rhesus monkey T cells in PBMCs (rhesus monkey). Description: flow cytometry on PBMCs, % anti-huIgG+ CD8+ cells, donor rh 3563.
Test [7] shares this target. Description: flow cytometry on PBMCs, % anti-huIgG+ CD4+ cells, donor rh 3483.
Test [8] has the same target. Description: flow cytometry on PBMCs, % anti-huIgG+ CD4+ cells, donor rh 3563.
For test [9], the target named is T1, CD3 expressed on cell-surface of …. The experiment in a line: flow cytometry on PBMCs, % anti-huIgG+ CD4+ cells, donor hu 151.
The target is the same in test [10]. The experiment in a line: flow cytometry on PBMCs, % anti-huIgG+ CD4+ cells, donor hu 340.
Description: as §3
In test [11] the target is CD3 on rhesus monkey T cells in PBMCs (rhesus monkey). Description: flow cytometry on PBMCs, % anti-huIgG+ CD8+ cells, donor rh 3483.
Test [12] has as its target T1, CD3 expressed on cell-surface of …. The experiment in a line: flow cytometry on PBMCs, % anti-huIgG+ CD8+ cells, donor hu 151.
Description: as §3
Test [13] has as its target T2, MabSelect SuRe (engineered Protein A).
T2 construct: also called MabSelect SuRe column
Description: 500 ml Expi293 expression, MabSelect SuRe capture and cation exchange; purified homodimer yield relative to parent.
Description: 500 ml of Expi293 cells were transfected with 0.5 mg DNA encoding selected huSP34 scFv-Fc Protein A knockout variants according to manufacturer's protocol. Four days post transfection, the cell-free clarified supernatant was collected and loaded to a MabSelect™ SuRe™ (Cytiva Life Sciences) column. Afterwards the column was washed with a low salt buffer of 25 mM Tris HCl pH 7.5, 25 mM NaCl for 10 column volumes (CV), then high salt wash of 25 mM Tris HCl pH 7.5, 500 mM NaCl for 5CV to remove non-specific binding, and finally washed with a low salt wash of 25 mM Tris HCl pH 7.5, 25 mM NaCl for 10CV. To elute the antibody, an isocratic elution step of 100 mM sodium acetate pH 3.7 was performed. The eluted pool was neutralized to pH 6.0 with 1 M Tris HCl pH 9.0, and subjected to a cation ion purification, HiTrap SP HP (Cytiva Life Sciences) to further remove impurities. The cation captured protein was washed with 10 mM sodium phosphate pH 7.0 for 10CV, then eluted in 0-30% gradient of 10 mM sodium phosphate pH 7.0, 1M NaCl for 50CV to separate the desired two targeting arm antibody (heterodimer) from the one targeted arm antibody (homodimer). Followed with gradient elution from 30-100% of 10 mM sodium phosphate pH 7.0, 1 M NaCl for 10CV to remove aggregation or homodimer in higher isoelectric point (pI). All proteins were formulated into 20 mM histidine pH 5.8 by dialysis, added additive of sucrose/tween-80, sterile filtered, and stored at 4° C. Concentration of the formulated protein was measured by A280. Purity was assessed as percent monodispersed by analytical size-exclusion chromatography. Identity of the bispecific antibody was determined by Mass Spec (MS).

Substitutions are numbered along the chain they refer to. In names and notes the source's numbering stands.

T1 sequence (P07766 23-207 limits assumed, chain 1 of 2): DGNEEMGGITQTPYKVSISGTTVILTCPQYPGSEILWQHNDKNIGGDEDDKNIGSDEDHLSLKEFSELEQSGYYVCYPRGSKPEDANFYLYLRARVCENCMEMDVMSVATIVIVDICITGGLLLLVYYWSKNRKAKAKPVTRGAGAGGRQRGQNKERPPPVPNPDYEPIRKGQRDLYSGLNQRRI
T1 sequence (P04234 22-171 limits assumed, chain 2 of 2): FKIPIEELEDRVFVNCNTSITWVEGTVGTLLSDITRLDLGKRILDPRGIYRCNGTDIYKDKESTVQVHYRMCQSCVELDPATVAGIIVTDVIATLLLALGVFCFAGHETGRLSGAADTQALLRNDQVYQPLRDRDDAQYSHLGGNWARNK
Sequence of CD3 on rhesus monkey T cells in PBMCs (rhesus monkey) (P16003 26-458): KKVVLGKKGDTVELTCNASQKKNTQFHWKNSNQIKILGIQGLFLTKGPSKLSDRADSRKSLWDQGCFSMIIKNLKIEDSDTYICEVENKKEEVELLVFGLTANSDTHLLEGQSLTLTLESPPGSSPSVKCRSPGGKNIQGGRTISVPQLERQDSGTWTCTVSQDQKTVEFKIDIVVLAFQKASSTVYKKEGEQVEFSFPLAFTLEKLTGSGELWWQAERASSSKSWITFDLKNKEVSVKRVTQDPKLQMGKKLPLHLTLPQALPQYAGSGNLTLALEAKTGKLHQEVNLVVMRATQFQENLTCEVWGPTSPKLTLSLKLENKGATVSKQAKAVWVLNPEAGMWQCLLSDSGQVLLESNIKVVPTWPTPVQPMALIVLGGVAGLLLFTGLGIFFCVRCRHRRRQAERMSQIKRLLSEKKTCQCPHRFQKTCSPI

B1: hPGT121.66 AAS + W/huSP34.3.4 scFv AAS + SAV + RF (bispecific antibody, human IgG1, lambda, L234A L235A)
chain: EVQLVESGGGLVQPGGSLRLSCAASGFTFNTYAMNWVRQAPGKGLEWVGRIRSKYNNYATYYADSVKGRFTISRDDSKNSLYLQMNSLRTEDTAVYYCVRHGNFGHSYVSWFAYWGQGTLVTVSSGGGGSGGGGSGGGGSGGGGSQAVVTQEPSLTVSPGGTVTLTCGSSTGAVTTSHYANWVQQKPGQAPRGLIGGTSKRAPWTPARFSGSLLGGKAALTLSGAQPEDEAEYYCALWYSALWVFGGGTKLTVLEPKSSDKTHTCPPCPAPEAAGGPSVFLFPPKPKDTLMISRTPEVTCVVVDVSHEDPEVKFNWYVDGVEVHNAKTKPREEQYNSTYRVVSVLTVLHQDWLNGKEYKCKVSNKALPASIEKTISKAKGQPREPQVYTLPPSREEMTKNQVSLSCAVKGFYPSDIAVEWESNGQPENNYKTTPPVLDSDGSFFLVSKLTVDKSRWQQGNVFSCSVMHEALHNRFTQKSLSLSPGK
heavy: QMQLQESGPGLVKPSETLSLTCSVSGASISDSYWSWIRRSPGKGLEWIGYVHKSGDTNYNPSLKSRVHLSLDTSKNQVSLSLTGVTAADSGKYYCARTLHGRRIYGIVAFNEWFTYFYMDVWGTGTQVTVSSASTKGPSVFPLAPSSKSTSGGTAALGCLVKDYFPEPVTVSWNSGALTSGVHTFPAVLQSSGLYSLSSVVTVPSSSLGTQTYICNVNHKPSNTKVDKKVEPKSCDKTHTCPPCPAPEAAGGPSVFLFPPKPKDTLMISRTPEVTCVVVDVSHEDPEVKFNWYVDGVEVHNAKTKPREEQYNSTYRVVSVLTVLHQDWLNGKEYKCKVSNKALPASIEKTISKAKGQPREPQVYTLPPSREEMTKNQVSLWCLVKGFYPSDIAVEWESNGQPENNYKTTPPVLDSDGSFFLYSKLTVDKSRWQQGNVFSCSVMHEALHNHYTQKSLSLSPGK
light: not shown
notes: also called 258
Consider B1, for which the EC50 in test [1] is 1.3 µg/mL; in test [2] it was 4.8 µg/mL; in [3], 5.1 µg/mL; in test [4] it was 5.7 µg/mL.

B2: hPGT121.66 AAS + W/huSP34.34.3 scFv AAS + SAV + R (bispecific antibody, human IgG1, lambda, L234A L235A)
chain: not shown
heavy: B1 heavy
light: not shown
In the case of B2, the EC50 in test [5] was 1.21 µg/mL; in test [6], 3.52 µg/mL; in [7] it was 0.93 µg/mL; in test [8] it was 1.48 µg/mL; in test [9], 1.41 µg/mL; in test [10] it was 1.64 µg/mL. Besides, the concentration for a half-maximal effect (EC50) turned out to be 2.35 µg/mL in test [11] and 1.62 µg/mL in test [12].

B3: hPGT121.66 AAS + W/huSP34.13.8 scFv AAS + SAV + R (bispecific antibody, human IgG1, lambda, L234A L235A)
chain: EVQLVESGGGLVQPGGSLRLSCAASGFTFSTYAMNWVRQAPGKGLEWVGRIRSKYNNYATYYAASVKGRFTISRDDSKNTLYLQMNSLRTEDTAVYYCVRHGNFGHSYVSWFAYWGQGTLVTVSSGGGGSGGGGSGGGGSGGGGSQAVVTQEPSLTVSPGGTVTLTCGSSTGAVTTGHYANWVQQKPGQAPRGLIGGTNKRAPGVPARFSGSLLGGKAALTISGAQPEDEAEYYCALWYSNRWVFGGGTKLTVLEPKSSDKTHTCPPCPAPEAAGGPSVFLFPPKPKDTLMISRTPEVTCVVVDVSHEDPEVKFNWYVDGVEVHNAKTKPREEQYNSTYRVVSVLTVLHQDWLNGKEYKCKVSNKALPASIEKTISKAKGQPREPQVYTLPPSREEMTKNQVSLSCAVKGFYPSDIAVEWESNGQPENNYKTTPPVLDSDGSFFLVSKLTVDKSRWQQGNVFSCSVMHEALHNRYTQKSLSLSPGK
heavy: B1 heavy
light: not shown
notes: also called 261
For the molecule B3, the EC50 came out at 0.1 µg/mL in [5]; 0.2 µg/mL in test [6]; 0.07 µg/mL in test [7]; 0.07 µg/mL in test [8]; 0.06 µg/mL in test [9]; 0.07 µg/mL in test [10]. Further, the half-maximal effective concentration (EC50) was 0.13 µg/mL in [11] and 0.08 µg/mL in test [12].

B4: hPGT121.66 AAS + W/huSP34.34.10 scFv AAS + SAV + R (bispecific antibody, human IgG1, lambda, L234A L235A)
chain: B3 chain with S30N, T80S, R89K, V95M, E152P, L214S
heavy: B1 heavy
light: not shown
As to B4, the concentration for a half-maximal effect (EC50) in test [5] was 0.08 µg/mL; in [6], 0.16 µg/mL; in test [7], 0.03 µg/mL; in test [8], 0.05 µg/mL; in test [9] it was 0.06 µg/mL; in test [10] it was 0.06 µg/mL. The results for the EC50 in [11] and in test [12] were 0.1 µg/mL and 0.07 µg/mL, respectively.

B5: hPGT121.66 AAS + W/huSP34.3.13scFv AAS + SAV + R (bispecific antibody, human IgG1, lambda, L234A L235A)
chain: B3 chain with S30N, A64D, T80S, N199S, K200N
heavy: B1 heavy
light: not shown
Turning to B5, the half-maximal effective concentration (EC50) in test [5] amounted to 0.14 µg/mL; in test [6] it was 0.21 µg/mL; in [7] it was 0.06 µg/mL; in [8], 0.08 µg/mL; in [9] it was 0.07 µg/mL; in test [10], 0.1 µg/mL. The EC50 in test [11] is 0.11 µg/mL; in [12] it was 0.09 µg/mL.

B6: hPGT121.66 AAS + W/huSP34.34.11 scFv AAS + SAV + R (bispecific antibody, human IgG1, lambda, L234A L235A)
chain: B3 chain with S30N, T80S, R89K, V95M, I222L, R242L
heavy: B1 heavy
light: not shown
B6: the concentration for a half-maximal effect (EC50) is 0.13 µg/mL in test [5]; 0.22 µg/mL in test [6]; 0.06 µg/mL in test [7]; 0.07 µg/mL in test [8]; 0.08 µg/mL in [9]; 0.09 µg/mL in test [10]. Also, the concentration for a half-maximal effect (EC50) in [11] worked out at 0.11 µg/mL; in test [12] it was 0.1 µg/mL.

B7: hPGT121.66 AAS + W/huSP34.34.12scFv AAS + SAV + R (bispecific antibody, human IgG1, lambda, L234A L235A)
chain: B3 chain with S30N, T80S, R89K, V95M, E152P, G204W, V205T, L214S
heavy: B1 heavy
light: not shown
As to B7, the concentration giving a half-maximal response (EC50) was 0.88 µg/mL in test [5]; 1.24 µg/mL in test [6]; 0.46 µg/mL in test [7]; 0.68 µg/mL in test [8]; 0.51 µg/mL in test [9]; 0.57 µg/mL in test [10]. For the same molecule, the results for the half-maximal effective concentration (EC50) in test [11] and in test [12] were 0.93 µg/mL and 0.85 µg/mL, respectively.

B8: huSP34.14.8 scFv AAS + SAV + R (Fc fusion)
chain: B3 chain with R19S
notes: also called R19S
In the case of B8, the “scFv-Fc Homodimer Yield Relative to WT (e.g. Protein A binding)” value (“scFv-Fc Homodimer Yield Relative to WT” below) in test [13] stood at 21%.

B9: huSP34.33.8 scFv AAS + SAV + R (Fc fusion)
chain: B3 chain with G68S, Q84E
notes: also called G65S, Q81E; G65S + Q81E
In the case of B9, the “scFv-Fc Homodimer Yield Relative to WT” value in [13] came out at 0.7%.

B10: huSP34.28.8 scFv AAS + SAV + R (Fc fusion)
chain: B3 chain with R19S, G68S
notes: also called R19S, G65S; R19S + G65S
As to B10, the “scFv-Fc Homodimer Yield Relative to WT” value in test [13] was determined as 1.5%.

B11: huSP34.25.8 scFv AAS + SAV + R (Fc fusion)
chain: B3 chain with T60A, G68S
notes: also called T57A, G65S; T57A + G65S
Regarding B11, the “scFv-Fc Homodimer Yield Relative to WT” value in test [13] is 1%.

B12: huSP34.26.8 scFv AAS + SAV + R (Fc fusion)
chain: B3 chain with R19S, T60A
notes: also called R19S, T57A; R19S + T57A
Turning to B12, the “scFv-Fc Homodimer Yield Relative to WT” value in test [13] was 8%.

B13: huSP34.19.8 scFv AAS + SAV + R (Fc fusion)
chain: B3 chain with Q84E
notes: also called Q81E
Consider B13, for which the “scFv-Fc Homodimer Yield Relative to WT” value in [13] was found to be 86%.

B14: huSP34.27.8 scFv AAS + SAV + R (Fc fusion)
chain: B3 chain with R19S, T60E
notes: also called R19S, T57E; R19S + T57E
Take B14: the “scFv-Fc Homodimer Yield Relative to WT” value in test [13] turned out to be 8%.
